# Measured values as given in patent US20250289893A1 (OXFORD UNIVERSITY INNOVATION, published 2025).
# Changes are numbered by the printed parent chain.
# T1: Cynomolgus monkey CD1a protein (Cynomolgus monkey)
# T1 chain: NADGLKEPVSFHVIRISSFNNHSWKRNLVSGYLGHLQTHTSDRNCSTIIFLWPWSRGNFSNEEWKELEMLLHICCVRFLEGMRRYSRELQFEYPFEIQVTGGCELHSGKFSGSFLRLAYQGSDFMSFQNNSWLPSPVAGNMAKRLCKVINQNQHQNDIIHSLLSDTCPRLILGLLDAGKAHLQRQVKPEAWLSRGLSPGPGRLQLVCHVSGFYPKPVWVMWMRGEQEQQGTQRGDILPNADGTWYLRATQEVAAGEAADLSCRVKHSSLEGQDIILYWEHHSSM
# B1: 77A (VR11851) (antibody, V domains shown)
# VH: QSVEESGGRLVTPGTPLTLTCTVSGFSLSSYAMSWVRQAPGKGLEWIGIISSSGTTYYASWAKGRFTISKTSTTVDLKITSPTTEDTATYFCARVDYYSSGWGGLWGPGTLVTVSS
# VL: AVEMTQTPASMSAAVGGTVTIKCQASEDIYSNLAWYQQKPGQPPKLLIYGASTLASGVPSRFKGSGSGTEYTLTISGVQCDDAATYYCQCTYDTSSYGNTFGGGTEMVVE
# notes: also called OX77a; antibody 77a
# B2: 111 (VR12113) (antibody, V domains shown)
# VH: QSVEESGGRLVTPGTPLTLTCTASGFSLSTYAMSWVRQAPGKGLEWIGIISSSGSTYYASWAKGRFTISKTSTTVDLKITSPTTEDTATYFCARETWYWLDLWGQGTLVTVSS
# VL: B1 VL with M11V, K22N, T91A, T94S, N99T, T100P, M107V, E110K
# notes: also called OX111
# B3: 116 (VR12117) (antibody, V domains shown)
# VH: QSVEESGGRLVTPGTPLTLTCTVSGFSLSNYAMSWVRQAPGKGLEWIGIIYTTGFTYYASWVKGRFTISKTSTTVDLKITSPTTEDTATYFCARGLATYVSPPTRLDLWGQGTLVTVSS
# VL: AQVLTQTPSPVSAAVGGTVTINCQASQSIYNSKNLAWYQQKPGQPPKLLIYSASTLASGVPSRFKGSGSGTQFTLTISDLECDDAATYYCQGEFSCSSVDCATFGGGTEVVVK
# notes: also called OX116
# B4: 110 (VR12112) (antibody, V domains shown)
# VH: QSVEESGGRLVTPGTPLTLTCTVSGFSLSSYAMIWVRQAPGKGLEWIGIINSSDNTHYATWAKGRFTISKTSTTVDLKITSPTTEDTATYFCARDPYDYGYGWYFDLWGPGTLVTVSS
# VL: AQVLTQTPSPVSAAVGGTVTINCQASQSVFNNKNLAWYQQKPGQPPKLLIYKASTLASGVSSRFKGSGSGTQFALTISGVQCDDAATYYCQGEFSCSSTDCVTFGGGTEVVVK
# notes: also called OX110; antibody 110
# Molecular target: T2, Cynomolgus monkey CD1a expressed on HEK-293 cells (Cynomolgus monkey, UniProt A0A2K5VQ68 17-326)
# Experiment: flow cytometry, HEK-293 cells, 10 µg/ml antibody
# Procedure: (§1) Binding to proteins expressed on HEK, C1R and MOLT4 cell lines was assessed. […] The C1R-CD1a, C1R-empty vector and MOLT4 cell lines were washed in 1×PBS on the day required. All cell lines were counted and resuspended in 1×PBS and then stained for 30 minutes at 37° C. using the DiI or DiO cellular stains (Invitrogen). Cells were washed with flow cytometry buffer (1% bovine serum albumin, 2 mM EDTA and 0.1% sodium azide in PBS) before mixing 2 DiI-stained and DiO-stained populations together. The cells (20 μl/well) were then added to dilutions of antibody sample (B cell culture supernatant, TAP supernatant, clone supernatant, purified antibody solution) (20 μl/well) and incubated for 1 hour at 4° C. in a flow cytometry assay plate, before being washed with flow cytometry buffer. 10 μl/well of Alexafluor647-conjugated goat anti-species IgG Fc-specific F(ab′)2 fragment (Jackson ImmunoResearch), diluted 1:2500 in flow cytometry buffer, was added and incubated at 4° C. for 30 minutes, followed by washing with wash buffer. The fluorescence intensity was then measured on an iQue screener PLUS.
# (§2) Binding was quantified as fold change in fluorescence intensity geomean over background assessed by flow cytometry.
# T2 sequence (A0A2K5VQ68 entry or part of it): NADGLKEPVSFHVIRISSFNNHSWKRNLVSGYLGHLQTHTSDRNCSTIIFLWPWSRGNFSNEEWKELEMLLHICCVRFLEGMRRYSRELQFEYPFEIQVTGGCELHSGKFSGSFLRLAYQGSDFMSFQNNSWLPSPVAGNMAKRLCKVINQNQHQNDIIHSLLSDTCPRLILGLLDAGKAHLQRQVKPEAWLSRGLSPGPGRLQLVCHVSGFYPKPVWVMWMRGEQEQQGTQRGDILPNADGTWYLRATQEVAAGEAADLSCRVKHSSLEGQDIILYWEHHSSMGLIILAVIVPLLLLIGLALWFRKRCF
row,Binder,Fluorescence Intensity Geomean (normalized to background)
1,B1,1.4 fold over background
2,B2,16.3 fold over background
3,B3,1.7 fold over background
4,B4,13.6 fold over background

# Molecular target: T3, human CD1a expressed on cells (human, UniProt P06126 17-327; P61769 21-119)
# T3 construct: also called HEK - CD1a; C1R - CD1a
# Experiment: flow cytometry, C1R cells, 1 µg/ml antibody
# Procedure: as §1, §2
row,Binder,Fluorescence Intensity Geomean (normalized to background)
1,B1,10.3 fold over background
2,B2,28 fold over background
3,B3,28.7 fold over background
4,B4,28.2 fold over background

# Molecular target: T2, Cynomolgus monkey CD1a expressed on …
# Experiment: flow cytometry, HEK-293 cells, 0.01 µg/ml antibody
# Procedure: as §1, §2
row,Binder,Fluorescence Intensity Geomean (normalized to background)
1,B1,1.7 fold over background
2,B2,8.9 fold over background
3,B3,1 fold over background
4,B4,1.2 fold over background

# Molecular target: T3, human CD1a expressed on cells
# Experiment: flow cytometry, MOLT4 cells, 1 µg/ml antibody
# Procedure: (§3) CD1a-specific antibodies were identified by flow cytometry. Binding to proteins expressed on HEK, C1R and MOLT4 cell lines was assessed. […] The C1R-CD1a, C1R-empty vector and MOLT4 cell lines were washed in 1×PBS on the day required. All cell lines were counted and resuspended in 1×PBS and then stained for 30 minutes at 37° C. using the DiI or DiO cellular stains (Invitrogen). Cells were washed with flow cytometry buffer (1% bovine serum albumin, 2 mM EDTA and 0.1% sodium azide in PBS) before mixing 2 DiI-stained and DiO-stained populations together. The cells (20 μl/well) were then added to dilutions of antibody sample (B cell culture supernatant, TAP supernatant, clone supernatant, purified antibody solution) (20 μl/well) and incubated for 1 hour at 4° C. in a flow cytometry assay plate, before being washed with flow cytometry buffer. 10 μl/well of Alexafluor647-conjugated goat anti-species IgG Fc-specific F(ab′)2 fragment (Jackson ImmunoResearch), diluted 1:2500 in flow cytometry buffer, was added and incubated at 4° C. for 30 minutes, followed by washing with wash buffer. The fluorescence intensity was then measured on an iQue screener PLUS.
# as §2
row,Binder,Fluorescence Intensity Geomean (normalized to background)
1,B1,13.5 fold over background
2,B2,31.2 fold over background
3,B3,30.6 fold over background
4,B4,33 fold over background

# Molecular target: T3, human CD1a expressed on cells
# Experiment: flow cytometry, C1R cells, 31.6 µg/ml antibody
# Procedure: as §1, §2
row,Binder,Fluorescence Intensity Geomean (normalized to background)
1,B1,1.3 fold over background
2,B2,7 fold over background
3,B3,13.7 fold over background
4,B4,6.2 fold over background

# Molecular target: T3, human CD1a expressed on cells
# Experiment: flow cytometry, MOLT4 cells, 0.1 µg/ml antibody
# Procedure: as §3, §2
row,Binder,Fluorescence Intensity Geomean (normalized to background)
1,B1,12.4 fold over background
2,B2,20.6 fold over background
3,B3,22.6 fold over background
4,B4,16.8 fold over background

# Molecular target: T4, human CD1a protein (pool B) (human, UniProt P06126 18-295, limits assumed)
# T4 construct: Recombinant protein of the ELISA (coated) and the Biacore T200 titration; whole entry named; also called human CD1a pool B; full length CD1a
# Experiment: SPR (Biacore T200), antibody captured, human CD1a titrated, 1:1 binding model
# Procedure: The affinity of the purified antibodies to human CD1a was assessed using a Biacore T200 instrument (GE Healthcare) by capturing the antibody to an immobilized anti-species IgG F(ab′)2 followed by titration of human CD1a. Affinipure Goat anti-species IgG-F(ab′)2 fragment specific (Jackson ImmunoResearch) was immobilized on a CM5 Sensor Chip (GE Healthcare) via amine coupling chemistry to a capture level of ˜5000 response units (RUs). HBS-EP+ buffer (10 mM HEPES pH 7.4, 0.15 M NaCl, 3 mM EDTA, 0.05% Surfactant P20, GE Healthcare) was used as the running buffer with a flow rate of 10 μL/min. A 10 μL injection of test antibody at 0.5 μg/mL was used for capture by the immobilized Goat Anti-species Fab.
# The surface was regenerated between cycles by injection of 2×10 μL of 40 mM HCl, interspersed by a 10 μL injection of 5 mM NaOH at flowrate of 10 μL/min. Background subtraction binding curves were analyzed using the Biacore T200 evaluation software following standard procedures. Kinetic parameters were determined from the fitting algorithm. This assay was performed at the clone supernatant and purified antibody stage.
# Affinity was required to be <100 nM to be considered for progression.
# T4 sequence (P06126 18-295 limits assumed): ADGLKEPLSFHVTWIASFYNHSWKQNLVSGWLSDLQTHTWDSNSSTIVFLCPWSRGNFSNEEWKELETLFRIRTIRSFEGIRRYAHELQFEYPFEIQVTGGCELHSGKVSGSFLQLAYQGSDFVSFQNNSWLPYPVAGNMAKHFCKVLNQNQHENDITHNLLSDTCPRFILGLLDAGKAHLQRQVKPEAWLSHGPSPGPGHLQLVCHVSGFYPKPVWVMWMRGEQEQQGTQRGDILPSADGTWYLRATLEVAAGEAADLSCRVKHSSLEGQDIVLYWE
Binder,Kd,koff,kon
B1,0.24 nM,0.000113 s⁻¹,469000 M⁻¹ s⁻¹
B2,≤ 0.0312 nM,< 1e-05 s⁻¹,321000 M⁻¹ s⁻¹
B3,2.89 nM,0.0014 s⁻¹,483000 M⁻¹ s⁻¹
B4,1.97 nM,,

# Molecular target: T5, human CD1b expressed on HEK-293 cells (human, UniProt P29016 18-333; P61769 21-119)
# T5 construct: also called HEK - CD1b
# Experiment: flow cytometry, HEK-293 cells, 10 µg/ml antibody
# Procedure: as §1
# (§4) HEK-293 cells were transiently transfected with human CD1a, CD1b, CD1c or CD1d and co-transfected with human β2M.
row,Binder,Fluorescence Intensity Geomean (normalized to background)
1,B1,1.1 fold over background
2,B2,1.1 fold over background
3,B3,1 fold over background
4,B4,1.1 fold over background

# Molecular target: T6, human CD1d expressed on HEK-293 cells (human, UniProt P15813 20-335; P61769 21-119)
# T6 construct: also called HEK - CD1d
# Experiment: flow cytometry, HEK-293 cells, 10 µg/ml antibody
# Procedure: as §1, §4
row,Binder,Fluorescence Intensity Geomean (normalized to background)
1,B1,1 fold over background
2,B2,1.1 fold over background
3,B3,1.1 fold over background
4,B4,1 fold over background

# Molecular target: T7, human CD1c expressed on HEK-293 cells (human, UniProt P29017 18-333; P61769 21-119)
# T7 construct: also called HEK - CD1c
# Experiment: flow cytometry, HEK-293 cells, 10 µg/ml antibody
# Procedure: as §1, §4
row,Binder,Fluorescence Intensity Geomean (normalized to background)
1,B1,0.9 fold over background
2,B2,1 fold over background
3,B3,1.1 fold over background
4,B4,1 fold over background

# Molecular target: T3, human CD1a expressed on cells
# Experiment: flow cytometry, HEK-293 cells, 10 µg/ml antibody
# Procedure: as §1, §4
row,Binder,Fluorescence Intensity Geomean (normalized to background)
1,B1,13.7 fold over background
2,B2,11.1 fold over background
3,B3,12.6 fold over background
4,B4,15.7 fold over background

# Molecular target: T1, Cynomolgus monkey CD1a protein
# Experiment: ELISA, 0.1 µg/ml antibody
row,Binder,Optical Density (OD)
1,B1,0.24 OD
2,B2,0.66 OD
3,B3,0.07 OD
4,B4,0.53 OD

# Molecular target: T3, human CD1a expressed on cells
# Experiment: flow cytometry, C1R cells, 0.316 µg/ml antibody
# Procedure: as §1, §2
row,Binder,Fluorescence Intensity Geomean (normalized to background)
1,B1,19 fold over background
2,B2,28.8 fold over background
3,B3,27.5 fold over background
4,B4,29.7 fold over background

# Molecular target: T4, human CD1a protein (pool B)
# Experiment: ELISA, 1 µg/ml antibody
# Procedure: (§5) CD1a-specific antibodies were identified by ELISA. […] 20 μl/well of peroxidase-conjugated goat anti-species IgG Fc-specific F(ab′)2 fragment (Jackson ImmunoResearch), diluted 1:5000 in block buffer was added and incubated at room temperature for 1 hour, followed by washing with wash buffer.
# (§6) The antibodies were titrated through a dilution series and compared to a control rabbit IgG antibody.
row,Binder,Optical Density (OD)
1,B1,1.34 OD
2,B2,1.14 OD
3,B3,1.15 OD

# Molecular target: T1, Cynomolgus monkey CD1a protein
# Experiment: ELISA, 0.01 µg/ml antibody
row,Binder,Optical Density (OD)
1,B1,0.1 OD
2,B2,0.48 OD
3,B3,0.07 OD
4,B4,0.22 OD

# Molecular target: T5, human CD1b expressed on HEK-293 cells
# Experiment: flow cytometry, HEK-293 cells, 100 µg/ml antibody
# Procedure: as §1, §4
row,Binder,Fluorescence Intensity Geomean (normalized to background)
1,B1,1 fold over background
2,B2,1.1 fold over background
3,B3,1.1 fold over background
4,B4,1.1 fold over background

# Molecular target: T6, human CD1d expressed on HEK-293 cells
# Experiment: flow cytometry, HEK-293 cells, 100 µg/ml antibody
# Procedure: as §1, §4
row,Binder,Fluorescence Intensity Geomean (normalized to background)
1,B1,1 fold over background
2,B2,1.1 fold over background
3,B3,1 fold over background
4,B4,1.1 fold over background

# Molecular target: T7, human CD1c expressed on HEK-293 cells
# Experiment: flow cytometry, HEK-293 cells, 100 µg/ml antibody
# Procedure: as §1, §4
row,Binder,Fluorescence Intensity Geomean (normalized to background)
1,B1,0.9 fold over background
2,B2,1.1 fold over background
3,B3,1 fold over background
4,B4,1 fold over background

# Molecular target: T3, human CD1a expressed on cells
# Experiment: flow cytometry, HEK-293 cells, 100 µg/ml antibody
# Procedure: as §1, §4
row,Binder,Fluorescence Intensity Geomean (normalized to background)
1,B1,4.1 fold over background
2,B2,4.3 fold over background
3,B3,3.9 fold over background
4,B4,5.9 fold over background

# Molecular target: T3, human CD1a expressed on cells
# Experiment: flow cytometry, C1R cells, 0.0316 µg/ml antibody
# Procedure: as §1, §2
row,Binder,Fluorescence Intensity Geomean (normalized to background)
1,B1,17 fold over background
2,B2,26 fold over background
3,B3,24.1 fold over background
4,B4,17.1 fold over background

# Molecular target: Chinese variant CD1a protein (human) (UniProt P06126)
# Experiment: ELISA, 10 µg/ml antibody
# Chinese variant CD1a protein (human), sequence (P06126 18-295, change not shown): as the sequence (P06126 18-295 limits assumed) above
row,Binder,Optical Density (OD)
1,B1,0.99 OD
2,B2,1.41 OD
3,B3,1.51 OD
4,B4,1.75 OD

# Molecular target: T8, chimeric CD1a pool B protein [human CD1a lipid binding domain, mouse CD1d Ig domain] (human; mouse, UniProt P06126 18-201; P11609 205-297, limits assumed)
# Experiment: ELISA, 31.6 µg/ml antibody
# Procedure: as §5
# (§7) The antibodies were titrated through a dilution series and compared to a control rabbit IgG antibody. […] Data shown for purified antibodies.
# T8 sequence (P06126 other isoform, or with tags, fused parts or gaps mutant limits assumed): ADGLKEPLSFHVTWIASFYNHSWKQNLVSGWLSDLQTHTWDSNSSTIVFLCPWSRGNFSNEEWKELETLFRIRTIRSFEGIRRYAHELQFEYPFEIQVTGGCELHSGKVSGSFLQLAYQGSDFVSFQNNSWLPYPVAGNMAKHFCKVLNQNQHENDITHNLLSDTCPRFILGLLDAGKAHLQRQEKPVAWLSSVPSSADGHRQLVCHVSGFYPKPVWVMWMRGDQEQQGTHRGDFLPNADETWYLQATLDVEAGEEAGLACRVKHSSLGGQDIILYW
row,Binder,Optical Density (OD)
1,B1,1.33 OD
2,B2,1.35 OD
3,B3,1.35 OD
4,B4,1.4 OD

# Molecular target: T4, human CD1a protein (pool B)
# Experiment: ELISA, 3.16 µg/ml antibody
# Procedure: as §5, §6
row,Binder,Optical Density (OD)
1,B1,1.33 OD
2,B2,1.13 OD
3,B3,1.15 OD
4,B4,1.27 OD

# Molecular target: Chinese variant CD1a protein (human) (UniProt P06126)
# Experiment: ELISA, 0.1 µg/ml antibody
row,Binder,Optical Density (OD)
1,B1,1.05 OD
2,B2,1.52 OD
3,B3,1.53 OD
4,B4,1.57 OD

# Molecular target: T8, chimeric CD1a pool B protein [human …
# Experiment: ELISA, 1 µg/ml antibody
# Procedure: as §5, §7
row,Binder,Optical Density (OD)
1,B1,1.26 OD
2,B2,1.36 OD
3,B3,1.42 OD
4,B4,1.45 OD
